Experimental data taken from IntAct's records for PubMed 18688256.

Target: T1, il33_human IL33 (UniProt O95760)
T1 sequence: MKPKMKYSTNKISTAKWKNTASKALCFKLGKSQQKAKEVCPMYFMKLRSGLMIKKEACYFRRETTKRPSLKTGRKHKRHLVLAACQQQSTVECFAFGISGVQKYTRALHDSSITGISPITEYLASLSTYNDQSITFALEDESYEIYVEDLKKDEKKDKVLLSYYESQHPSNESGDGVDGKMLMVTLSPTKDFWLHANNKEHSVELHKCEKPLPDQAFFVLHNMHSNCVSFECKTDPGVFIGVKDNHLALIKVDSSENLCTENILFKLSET

Substance	effect of a mutation on the interaction
Histone H2A type 1 (Homo sapiens) (from UniProt P0C0S8) E92R	decreasing interaction
Histone H2A type 1 (Homo sapiens) (from UniProt P0C0S8) E93L	decreasing interaction
